From the supplement of paper PMC5998384 come the findings set out here.

The subject of series [1] is HeLa Kyoto. As to the kind of experiment: solubility in G1/S (NP-40 vs SDS abundance) (log2 ratio); higher = more soluble. The following applies: cell cycle stage: G1/S.
Series [2] concerns HeLa Kyoto. As to the kind of experiment: melting temperature (median over replicates), in situ; higher = more thermally stable.
Series [3] concerns HeLa Kyoto. As to the kind of experiment: solubility change mitosis vs G1/S (difference of NP-40 vs SDS log2 ratios) (log2 ratio difference); higher = more soluble in mitosis.
Series [4] has as its system HeLa Kyoto. As to the kind of experiment: thermal stability score vs G1/S (z-score of summed log2 fold changes over temperatures); higher = more thermally stable than in G1/S.
Where [5] appears, read: cell cycle stage: early G1 (4.5 h after nocodazole release).
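Throughout, for melting temperature (median over replicates), in situ: HeLa Kyoto cells synchronized by double thymidine or nocodazole block, proteins quantified by TMT10plex mass spectrometry, three independent biological replicates.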
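Throughout, for solubility change mitosis vs G1/S (difference of NP-40 vs SDS log2 ratios): synchronized HeLa Kyoto cells (double thymidine block for G1/S, nocodazole release for mitosis), protein amounts in NP-40 versus SDS lysates quantified by mass spectrometry, three biological replicates.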
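Throughout, for solubility in G1/S (NP-40 vs SDS abundance): HeLa Kyoto cells arrested at G1/S by double thymidine block, proteins quantified by TMT10plex mass spectrometry in mild NP-40 versus SDS extracts, three biological replicates.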
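Throughout, for thermal stability score vs G1/S (z-score of summed log2 fold changes over temperatures): synchronized HeLa Kyoto cells, proteins quantified by TMT10plex mass spectrometry, three biological replicates, mitosis taken 0.5 h after nocodazole release, G1/S directly after double thymidine block.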

For the sequence “MAAPQDVHVRICNQEIVKFDLEVKALIQDIRDCSGPLSALTELNTKVKEKFQQLRHRIQDLEQLAKEQDKESEKQLLLQEVENHKKQMLSNQASWRKANLTCKIAIDNLEKAELLQGGDLLRQRKTTKESLAQTSSTITESLMGISRMMAQQVQQSEEAMQSLVTSSRTILDANEEFKSMSGTIQLGRKLITKYNRRELTDKLLIFLALALFLATVLYIVKKRLFPFL [BNIP1]”, the “solubility in G1/S (log2)” value with HeLa Kyoto [1] was -0.186. The melting temperature in the series on HeLa Kyoto [2] (cell cycle stage: G1/S) amounted to 52.3 °C; with HeLa Kyoto [2] (cell cycle stage: mitosis), 51.7 °C. The “solubility change mitosis (log2)” value in the series on HeLa Kyoto [3] is -0.0998. In addition, the thermal stability score with HeLa Kyoto [4] (setting [5]) was 1.09; in the series on HeLa Kyoto [4] (cell cycle stage: mitosis), 0.444.
With “MEKFGMNFGGGPSKKDLLETIETQKKQLLQYQARLKDVVRAYKSLLKEKEALEASIKVLSVSHEADVGLAGVQLPGLTFPDSVDDRCSTHSEDSTGTATSLDTAASLTSTKGEFGVEDDRPARGPPPPKSEEASWSESGVSSSSGDGPFAGGEVDKRLHQLKTQLATLTSSLATVTQEKSRMEASYLADKKKMKQDLEDASNKAEEERARLEGELKGLQEQIAETKARLITQQHDRAQEQSDHALMLRELQKLLQEERTQRQDLELRLEETREALAGRAYAAEQMEGFELQTKQLTREVEELKSELQAIRDEKNQPDPRLQELQEEAARLKSHFQAQLQQEMRKTALAEDQLRQQSQVEEQRVAALENQISEVSELLGTYEKAKQKDQLAIQKLKERILQLDLENKTLALAASSRSPLDSHGEESSLDVNVLKDKMEKLKRLLQVAARKSQVTLDVEKLCDLEIMPSSEAADGEKATALYYQQELKQLKEEFERYKMRAQVVLKSKNTKDGNLGKELEAAQEQLAELKEKYISLRLSCEELEHQHQQEADDWKQELARLQQLHRQELERCQLDFRDRTLKLEEELHKQRDRALAVLTEKDLELEQLRSVALASGLPGRRSPVGGGGPGDPADTSSSDSLTQALQLAAANEPTFFLYAEQLARKEVEITSLRKQKHRLEVEVHQLQDRLLEEGERHREEVAALQSHIEKNIRDQSREGANLEYLKNIIYRFLTLPDSLGRQQTLTAILTILHFSPEEKQVIMRLPTSASWWPSGKR [GCC1]”, the “solubility in G1/S (log2)” value in the series with HeLa Kyoto [1] worked out at 0.527. Also, the melting temperature came out at 48.7 °C with HeLa Kyoto [2] (cell cycle stage: G1/S) and 51.5 °C in the series on HeLa Kyoto [2] (cell cycle stage: mitosis). For the same sequence, the “solubility change mitosis (log2)” value in the series with HeLa Kyoto [3] is -0.114. Further, the figures for the thermal stability score in the series with HeLa Kyoto [4] (setting [5]) and in the series with HeLa Kyoto [4] (cell cycle stage: mitosis) were -0.43 and 0.117, respectively.
Consider “MGIQTSPVLLASLGVGLVTLLGLAVGSYLVRRSRRPQVTLLDPNEKYLLRLLDKTTVSHNTKRFRFALPTAHHTLGLPVGKHIYLSTRIDGSLVIRPYTPVTSDEDQGYVDLVIKVYLKGVHPKFPEGGKMSQYLDSLKVGDVVEFRGPSGLLTYTGKGHFNIQPNKKSPPEPRVAKKLGMIAGGTGITPMLQLIRAILKVPEDPTQCFLLFANQTEKDIILREDLEELQARYPNRFKLWFTLDHPPKDWAYSKGFVTADMIREHLPAPGDDVLVLLCGPPPMVQLACHPNLDKLGYSQKMRFTY [CYB5R1]”, for which the “solubility in G1/S (log2)” value in the series on HeLa Kyoto [1] is 0.339. The results for the melting temperature in the series with HeLa Kyoto [2] (cell cycle stage: G1/S) and in the series with HeLa Kyoto [2] (cell cycle stage: mitosis) were 54.1 °C and 55.3 °C, respectively. In addition, the “solubility change mitosis (log2)” value with HeLa Kyoto [3] is -0.041. Further, the thermal stability score was -0.825 in the series with HeLa Kyoto [4] (setting [5]) and -0.661 in the series with HeLa Kyoto [4] (cell cycle stage: mitosis).
For “MQEKDASSQGFLPHFQHFATQAIHVGQDPEQWTSRAVVPPISLSTTFKQGAPGQHSGFEYSRSGNPTRNCLEKAVAALDGAKYCLAFASGLAATVTITHLLKAGDQIICMDDVYGGTNRYFRQVASEFGLKISFVDCSKIKLLEAAITPETKLVWIETPTNPTQKVIDIEGCAHIVHKHGDIILVVDNTFMSPYFQRPLALGADISMYSATKYMNGHSDVVMGLVSVNCESLHNRLRFLQNSLGAVPSPIDCYLCNRGLKTLHVRMEKHFKNGMAVAQFLESNPWVEKVIYPGLPSHPQHELVKRQCTGCTGMVTFYIKGTLQHAEIFLKNLKLFTLAESLGGFESLAELPAIMTHASVLKNDRDVLGISDTLIRLSVGLEDEEDLLEDLDQALKAAHPPSGSHS [CTH]”, the “solubility in G1/S (log2)” value with HeLa Kyoto [1] was found to be 0.283. In addition, the melting temperature in the series on HeLa Kyoto [2] (cell cycle stage: G1/S) was found to be 59 °C; in the series with HeLa Kyoto [2] (cell cycle stage: mitosis) it was 58.5 °C. In addition, in the series with HeLa Kyoto [3], the “solubility change mitosis (log2)” value is -0.134. The results for the thermal stability score with HeLa Kyoto [4] (setting [5]) and in the series with HeLa Kyoto [4] (cell cycle stage: mitosis) were -1.76 and -0.741, respectively.
“MCGNTMSVPLLTDAATVSGAERETAAVIFLHGLGDTGHSWADALSTIRLPHVKYICPHAPRIPVTLNMKMVMPSWFDLMGLSPDAPEDEAGIKKAAENIKALIEHEMKNGIPANRIVLGGFSQGGALSLYTALTCPHPLAGIVALSCWLPLHRAFPQAANGSAKDLAILQCHGELDPMVPVRFGALTAEKLRSVVTPARVQFKTYPGVMHSSCPQEMAAVKEFLEKLLPPV [LYPLA2]”: the “solubility in G1/S (log2)” value in the series on HeLa Kyoto [1] was determined as 0.543. In addition, the melting temperature with HeLa Kyoto [2] (cell cycle stage: G1/S) worked out at 53.3 °C; with HeLa Kyoto [2] (cell cycle stage: mitosis) it was 53 °C. Further, in the series with HeLa Kyoto [3], the “solubility change mitosis (log2)” value came to 0.185. Besides, the thermal stability score in the series on HeLa Kyoto [4] (setting [5]) was -1.02; in the series on HeLa Kyoto [4] (cell cycle stage: mitosis), 0.00875.
With “MDLFGDLPEPERSPRPAAGKEAQKGPLLFDDLPPASSTDSGSGGPLLFDDLPPASSGDSGSLATSISQMVKTEGKGAKRKTSEEEKNGSEELVEKKVCKASSVIFGLKGYVAERKGEREEMQDAHVILNDITEECRPPSSLITRVSYFAVFDGHGGIRASKFAAQNLHQNLIRKFPKGDVISVEKTVKRCLLDTFKHTDEEFLKQASSQKPAWKDGSTATCVLAVDNILYIANLGDSRAILCRYNEESQKHAALSLSKEHNPTQYEERMRIQKAGGNVRDGRVLGVLEVSRSIGDGQYKRCGVTSVPDIRRCQLTPNDRFILLACDGLFKVFTPEEAVNFILSCLEDEKIQTREGKSAADARYEAACNRLANKAVQRGSADNVTVMVVRIGH [ILKAP]”, the “solubility in G1/S (log2)” value with HeLa Kyoto [1] worked out at 0.239. The melting temperature in the series on HeLa Kyoto [2] (cell cycle stage: G1/S) worked out at 49.3 °C; in the series on HeLa Kyoto [2] (cell cycle stage: mitosis), 49.8 °C. The “solubility change mitosis (log2)” value in the series on HeLa Kyoto [3] was -0.0534. Moreover, the thermal stability score amounted to 0.735 with HeLa Kyoto [4] (setting [5]) and 1.5 in the series with HeLa Kyoto [4] (cell cycle stage: mitosis).
For the sequence “MVLCPVIGKLLHKRVVLASASPRRQEILSNAGLRFEVVPSKFKEKLDKASFATPYGYAMETAKQKALEVANRLYQKDLRAPDVVIGADTIVTVGGLILEKPVDKQDAYRMLSRLSGREHSVFTGVAIVHCSSKDHQLDTRVSEFYEETKVKFSELSEELLWEYVHSGEPMDKAGGYGIQALGGMLVESVHGDFLNVVGFPLNHFCKQLVKLYYPPRPEDLRRSVKHDSIPAADTFEDLSDVEGGGSEPTQRDAGSRDEKAEAGEAGQATAEAECHRTRETLPPFPTRLLELIEGFMLSKGLLTACKLKVFDLLKDEAPQKAADIASKVDASACGMERLLDICAAMGLLEKTEQGYSNTETANVYLASDGEYSLHGFIMHNNDLTWNLFTYLEFAIREGTNQHHRALGKKAEDLFQDAYYQSPETRLRFMRAMHGMTKLTACQVATAFNLSRFSSACDVGGCTGALARELAREYPRMQVTVFDLPDIIELAAHFQPPGPQAVQIHFAAGDFFRDPLPSAELYVLCRILHDWPDDKVHKLLSRVAESCKPGAGLLLVETLLDEEKRVAQRALMQSLNMLVQTEGKERSLGEYQCLLELHGFHQVQVVHLGGVLDAILATKVAP [ASMTL]”, the “solubility in G1/S (log2)” value with HeLa Kyoto [1] was -0.0739. Moreover, the melting temperature in the series on HeLa Kyoto [2] (cell cycle stage: G1/S) was found to be 51.6 °C; in the series on HeLa Kyoto [2] (cell cycle stage: mitosis), 50.8 °C. Also, in the series with HeLa Kyoto [3], the “solubility change mitosis (log2)” value was -0.178. The results for the thermal stability score in the series with HeLa Kyoto [4] (setting [5]) and in the series with HeLa Kyoto [4] (cell cycle stage: mitosis) were 0.0527 and 0.533, respectively.
For the sequence “MAPQNLSTFCLLLLYLIGAVIAGRDFYKILGVPRSASIKDIKKAYRKLALQLHPDRNPDDPQAQEKFQDLGAAYEVLSDSEKRKQYDTYGEEGLKDGHQSSHGDIFSHFFGDFGFMFGGTPRQQDRNIPRGSDIIVDLEVTLEEVYAGNFVEVVRNKPVARQAPGKRKCNCRQEMRTTQLGPGRFQMTQEVVCDECPNVKLVNEERTLEVEIEPGVRDGMEYPFIGEGEPHVDGEPGDLRFRIKVVKHPIFERRGDDLYTNVTISLVESLVGFEMDITHLDGHKVHISRDKITRPGAKLWKKGEGLPNFDNNNIKGSLIITFDVDFPKEQLTEEAREGIKQLLKQGSVQKVYNGLQGY [DNAJB11]”, in the series on HeLa Kyoto [1], the “solubility in G1/S (log2)” value was determined as 0.337. The melting temperature with HeLa Kyoto [2] (cell cycle stage: G1/S) worked out at 54.7 °C; with HeLa Kyoto [2] (cell cycle stage: mitosis), 55 °C. For the same sequence, the “solubility change mitosis (log2)” value in the series on HeLa Kyoto [3] is -0.0195. Further, the thermal stability score in the series on HeLa Kyoto [4] (setting [5]) was 3; in the series with HeLa Kyoto [4] (cell cycle stage: mitosis), 0.842.
As to “MACRGGAGNGHRASATLSRVSPGSLYTCRTRTHNICMVSDFFYPNMGGVESHIYQLSQCLIERGHKVIIVTHAYGNRKGIRYLTSGLKVYYLPLKVMYNQSTATTLFHSLPLLRYIFVRERVTIIHSHSSFSAMAHDALFHAKTMGLQTVFTDHSLFGFADVSSVLTNKLLTVSLCDTNHIICVSYTSKENTVLRAALNPEIVSVIPNAVDPTDFTPDPFRRHDSITIVVVSRLVYRKGIDLLSGIIPELCQKYPDLNFIIGGEGPKRIILEEVRERYQLHDRVRLLGALEHKDVRNVLVQGHIFLNTSLTEAFCMAIVEAASCGLQVVSTRVGGIPEVLPENLIILCEPSVKSLCEGLEKAIFQLKSGTLPAPENIHNIVKTFYTWRNVAERTEKVYDRVSVEAVLPMDKRLDRLISHCGPVTGYIFALLAVFNFLFLIFLRWMTPDSIIDVAIDATGPRGAWTNNYSHSKRGGENNEISETR [PIGA]”, the “solubility in G1/S (log2)” value with HeLa Kyoto [1] was -0.107. Also, the melting temperature in the series on HeLa Kyoto [2] (cell cycle stage: G1/S) worked out at 55 °C; in the series on HeLa Kyoto [2] (cell cycle stage: mitosis), 53.6 °C. In addition, in the series on HeLa Kyoto [3], the “solubility change mitosis (log2)” value is -0.133. Further, the thermal stability score is -0.383 with HeLa Kyoto [4] (setting [5]) and -0.682 in the series with HeLa Kyoto [4] (cell cycle stage: mitosis).
With “MLSRVVLSAAATAAPSLKNAAFLGPGVLQATRTFHTGQPHLVPVPPLPEYGGKVRYGLIPEEFFQFLYPKTGVTGPYVLGTGLILYALSKEIYVISAETFTALSVLGVMVYGIKKYGPFVADFADKLNEQKLAQLEEAKQASIQHIQNAIDTEKSQQALVQKRHYLFDVQRNNIAMALEVTYRERLYRVYKEVKNRLDYHISVQNMMRRKEQEHMINWVEKHVVQSISTQQEKETIAKCIADLKLLAKKAQAQPVM [ATP5F1]”, in the series on HeLa Kyoto [1], the “solubility in G1/S (log2)” value was 0.102. Besides, the melting temperature in the series with HeLa Kyoto [2] (cell cycle stage: G1/S) turned out to be 52.8 °C; in the series with HeLa Kyoto [2] (cell cycle stage: mitosis), 53.8 °C. For the same sequence, the “solubility change mitosis (log2)” value in the series on HeLa Kyoto [3] was 0.116. Further, the thermal stability score in the series on HeLa Kyoto [4] (setting [5]) was -0.0719; with HeLa Kyoto [4] (cell cycle stage: mitosis) it was -1.2.
